# Test results as given in patent publication US20240181074A1 (SHENZHEN ENDURING BIOTECH, published 2024).
# T1: human CD19-Fc protein (AcroBiosystems, Cat. CD19-H5259 / Code CD9-H5259) (human, UniProt P15391 20-291)
# T1 construct: not shown: Fc of the bought CD19-Fc
# T1 sequence (looked up): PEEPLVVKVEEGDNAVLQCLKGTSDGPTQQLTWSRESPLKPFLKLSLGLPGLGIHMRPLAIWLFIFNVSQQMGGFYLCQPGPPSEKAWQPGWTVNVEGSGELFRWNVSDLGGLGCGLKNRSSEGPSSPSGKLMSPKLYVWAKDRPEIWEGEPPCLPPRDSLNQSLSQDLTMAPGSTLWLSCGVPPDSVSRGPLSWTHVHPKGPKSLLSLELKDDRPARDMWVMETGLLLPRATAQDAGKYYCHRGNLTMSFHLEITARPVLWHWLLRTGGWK
# T2: human CD19 on cells (human, UniProt P15391 20-556)
# T2 sequence (looked up): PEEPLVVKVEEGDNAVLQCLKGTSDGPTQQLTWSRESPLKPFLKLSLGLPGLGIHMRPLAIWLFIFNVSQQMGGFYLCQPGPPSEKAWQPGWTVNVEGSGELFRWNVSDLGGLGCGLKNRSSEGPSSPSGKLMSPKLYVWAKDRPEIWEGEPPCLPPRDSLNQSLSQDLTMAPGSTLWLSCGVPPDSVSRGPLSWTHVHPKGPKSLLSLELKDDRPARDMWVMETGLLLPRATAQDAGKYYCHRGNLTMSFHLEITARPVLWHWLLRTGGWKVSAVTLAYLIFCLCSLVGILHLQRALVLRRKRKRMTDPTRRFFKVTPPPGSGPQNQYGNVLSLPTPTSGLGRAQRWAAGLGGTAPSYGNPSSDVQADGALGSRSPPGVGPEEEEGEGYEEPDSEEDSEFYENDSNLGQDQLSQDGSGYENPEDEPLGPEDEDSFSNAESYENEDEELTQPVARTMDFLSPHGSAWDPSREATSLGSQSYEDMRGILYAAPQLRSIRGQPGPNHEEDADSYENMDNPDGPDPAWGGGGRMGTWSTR
# Experiments:
# [1] = target: T1, human CD19-Fc protein (AcroBiosystems, …); experiment: BiaCore SPR, ligand captured by Fc capture
# Excerpt: General procedure: Diluted human CD19 (AcroBiosystems, Cat. CD19-H5259) or human CD3E&3D (AcroBiosystems, Cat. CDD-H52W0) were captured on the sensor chip through Fc capture method. The capture time for human CD3E & CD3D and for human CD19 was set for 12 s and 12-30 s respectively and capture flow rate was […]. Each sample tested was serially diluted into 6-8 concentrations. The association time and dissociation time for the analytes were set for 180 s and 420 s respectively, and the flow rate for the analyte was set at […]. For surface regeneration, 10 mM Glycine-HCl buffer was used; the contact time was set for 30 s and the flow rate was […]. Flow cell 1 and blank injection of buffer in each cycle were used as double references for Response Units subtraction. All data were processed using BiaCore T2000 Evaluation software (version 3.1).
# human CD19 on cells = target: T2, human CD19 on cells; experiment: cell-based or functional assay
binder,measurement,setting,value
anti-CD19 scFv (SCACD19) (scFv) scFv: DIQLTQSPASLAVSLGQRATISCKASQSVDYDGDSYLNWYQQIPGQPPKLLIYDASNLVSGIPPRFSGSGSGTDFTLNIHPVEKVDAATYHCQQSTEDPWTFGGGTKLEIKGCGGGSGGGGSGGGGSQVQLQQSGAELVRPGSSVKISCKASGYAFSSYWMNWVKQRPGQGLEWIGQIWPGDGDTNYNGKFKGKATLTADESSSTAYMQLSSLASEDSAVYFCARRETTTVGRYYYAMDYWGQGTTVTVSSHHHHHH,Kd,[1],65.3 pM
same,koff,[1],0.000343 s⁻¹
same,kon,[1],5.26e+06 M⁻¹ s⁻¹
"anti-CD19 scFv-Linker (anti-CD19-Linker) (scFv, conjugated to a linker (linker is a much smaller PEG11); the residue is not given, Linker conjugate of SCACD19; also called SCACD19-linker) scFv: DIQLTQSPASLAVSLGQRATISCKASQSVDYDGDSYLNWYQQIPGQPPKLLIYDASNLVSGIPPRFSGSGSGTDFTLNIHPVEKVDAATYHCQQSTEDPWTFGGGTKLEIKGCGGGSGGGGSGGGGSQVQLQQSGAELVRPGSSVKISCKASGYAFSSYWMNWVKQRPGQGLEWIGQIWPGDGDTNYNGKFKGKATLTADESSSTAYMQLSSLASEDSAVYFCARRETTTVGRYYYAMDYWGQGTTVTVSSHHHHHH",Kd,[1],111 pM
same,koff,[1],0.000309 s⁻¹
same,kon,[1],2.79e+06 M⁻¹ s⁻¹
"JY108 (PEGylated BsAb anti-CD3 x anti-CD19) (bispecific antibody, conjugated through a linker to the branched terminal of mPEG (structure given only as a drawing); residue not given, also called PEGylated T-BsAb JY108) scFv 1: DIQLTQSPASLAVSLGQRATISCKASQSVDYDGDSYLNWYQQIPGQPPKLLIYDASNLVSGIPPRFSGSGSGTDFTLNIHPVEKVDAATYHCQQSTEDPWTFGGGTKLEIKGCGGGSGGGGSGGGGSQVQLQQSGAELVRPGSSVKISCKASGYAFSSYWMNWVKQRPGQGLEWIGQIWPGDGDTNYNGKFKGKATLTADESSSTAYMQLSSLASEDSAVYFCARRETTTVGRYYYAMDYWGQGTTVTVSS scFv 2: not shown",Kd,[1],1440 pM
same,koff,[1],0.000566 s⁻¹
same,kon,[1],392000 M⁻¹ s⁻¹
same,"EC50 of cell killing (MTS cytotoxicity), Nalm-6, E:T=5:1",human CD19 on cells,0.0376 µg/mL
same,"EC50 of cell killing (MTS cytotoxicity), Nalm-6, E:T=10:1",human CD19 on cells,0.0147 µg/mL
same,"EC50 of cell killing (MTS cytotoxicity), REH",human CD19 on cells,0.0104 µg/mL
same,"EC50 of cell killing (MTS cytotoxicity), Raji",human CD19 on cells,0.159 µg/mL
